# From PMC5871780, “Klf4 glutamylation is required for cell reprogramming and early embryonic development in mice”
# B1: Nanog promoter probe (dsDNA)
# DNA 1: GCCGCCTGGGTGCCTGGGAGAATAGGGGGTGGGTAGGGTAGGAGGCTTG
# DNA 2: CAAGCCTCCTACCCTACCCACCCCCTATTCTCCCAGGCACCCAGGCGGC
# Legend:
# GST-Klf4-E381A = GST-Klf4-E381A (Mus musculus, UniProt Q60793 1-483, E381A); assay: EMSA; affinity comparable to wt; LightShift Chemiluminescent EMSA Kit (Thermo Scientific), per manufacturer; buffer, salt, pH and temperature not stated; conditions: protein: recombinant; tags: GST (N-term, pGEX-6P-1); blunt
# Chain of GST-Klf4-E381A (Q60793 whole entry E381A): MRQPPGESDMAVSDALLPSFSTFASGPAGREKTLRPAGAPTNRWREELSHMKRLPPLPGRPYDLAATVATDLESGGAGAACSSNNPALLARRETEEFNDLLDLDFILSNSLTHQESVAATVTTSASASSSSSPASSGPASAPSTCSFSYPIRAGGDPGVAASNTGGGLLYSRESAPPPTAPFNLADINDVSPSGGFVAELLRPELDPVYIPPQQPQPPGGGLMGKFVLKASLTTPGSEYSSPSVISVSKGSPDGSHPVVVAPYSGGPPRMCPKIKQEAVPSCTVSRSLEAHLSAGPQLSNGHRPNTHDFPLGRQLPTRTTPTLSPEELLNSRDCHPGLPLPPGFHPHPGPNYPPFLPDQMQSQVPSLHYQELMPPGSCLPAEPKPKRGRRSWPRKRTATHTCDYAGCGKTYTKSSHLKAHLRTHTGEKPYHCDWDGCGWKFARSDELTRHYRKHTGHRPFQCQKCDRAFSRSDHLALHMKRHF
# GST-Klf4-wt = GST-Klf4-wt (Mus musculus, UniProt Q60793 1-483); assay: EMSA; unlabeled probe (1x or 100x) competes; LightShift Chemiluminescent EMSA Kit (Thermo Scientific), per manufacturer; buffer, salt, pH and temperature not stated; conditions: protein: recombinant; tags: GST (N-term, pGEX-6P-1); blunt
# Chain of GST-Klf4-wt (Q60793 whole entry): as the sequence (Q60793 whole entry E381A) above, with A381E counted along it
binder,measurement,setting,value
B1,binding result,GST-Klf4-E381A,binds
same,binding result,GST-Klf4-wt,binds
